In publication PMC11533501 one finds mean rupture strength, mean sliding speed of side-attached beads under 1 pN toward the minus end and mean sliding speed of side-attached beads under 1 pN toward the plus end data, which are given here for two substances.

In experiment [1] the target is dynamic microtubules grown from coverslip-anchored biotinylated GMPcPP seeds (bovine brain tubulin) (bovine) (UniProt Q6B856). Briefly: laser trap rupture force assay; kinetochore particles sparsely on anti-His polystyrene beads, attached near the tips of dynamic microtubules grown from coverslip-anchored seeds; preload about 1 pN, then force ramp 0.25 pN/s until detachment; growth buffer (BRB80, 1 mM GTP, tubulin).

The target is the same in experiment [2]. Kind of experiment: laser trap bidirectional sliding friction assay; beads decorated sparsely with native kinetochore particles on the sides of coverslip-anchored dynamic microtubules; constant force 0.5-3 pN along the axis, direction reversed periodically; speeds at 1 ± 0.5 pN.
Experiment [3] shares this target. Briefly: laser trap bidirectional sliding friction assay; anti-His beads densely coated with recombinant Ndc80c (about 3,000 complexes a bead, not single-molecule conditions) on the sides of coverslip-anchored dynamic microtubules; constant force along the axis, direction reversed; speeds at 1 ± 0.5 pN.

As to “native kinetochore particles isolated from yeast (Dsn1-6His-3Flag) (from UniProt P40568 1-576) (complex)”, in experiment [1], the mean rupture strength at microtubule minus ends was determined as 3.3 pN and the mean rupture strength at microtubule plus ends amounted to 9.7 pN. Further, in experiment [2], the mean sliding speed of side-attached beads under 1 pN toward the minus end came to 674 nm·s^-1 and the mean sliding speed of side-attached beads under 1 pN toward the plus end turned out to be 109 nm·s^-1.

Take “recombinant human Ndc80 complex (from UniProt O14777 1-642; Q9BZD4 1-464; Q8NBT2 1-197; Q9HBM1 1-224)”: in experiment [3], the mean sliding speed of side-attached beads under 1 pN toward the minus end came to 464 nm·s^-1 and the mean sliding speed of side-attached beads under 1 pN toward the plus end came out at 130 nm·s^-1.
